Results on one molecule are retold here after patent US20140322246A1 (IGEM THERAPEUTICS, published 2014).

The assay deals with T1, FcεRII (CD23, low affinity IgE receptor) (human, UniProt P06734 1-321).
T1 construct: whole, on cells
T1 sequence (looked up): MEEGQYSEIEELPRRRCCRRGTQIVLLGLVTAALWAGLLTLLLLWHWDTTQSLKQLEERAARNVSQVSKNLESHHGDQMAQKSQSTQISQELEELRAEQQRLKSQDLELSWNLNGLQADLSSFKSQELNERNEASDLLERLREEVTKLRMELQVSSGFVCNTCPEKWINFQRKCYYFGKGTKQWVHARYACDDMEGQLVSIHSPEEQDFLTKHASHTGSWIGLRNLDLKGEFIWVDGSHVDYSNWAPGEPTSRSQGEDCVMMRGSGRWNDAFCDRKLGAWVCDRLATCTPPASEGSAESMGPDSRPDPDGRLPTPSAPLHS
As to the kind of experiment: flow cytometry on human primary monocytes and U937 cells. From the text: FIG. 3: Flow cytometric histograms showing HMW-MAA-IgE binding. A: Binding of chimaeric IgE to A375 melanoma tumour cells (left) but not to melanocytes (right). B: Binding of IgE to U937 monocytic cells (left) and to primary […] (right). Antibody binding was detected using a goat anti-human IgE-FITC antibody. C: Flow cytometric histograms showing HMW-MAA-IgG binding to A375 melanoma tumour cells (left) and U937 monocytic cells (right). Antibody binding was detected using a goat anti-human IgG-FITC antibody.
The interactions of anti-HMW-MAA antibodies with A375 melanoma tumour cells were analysed by flow cytometry and immunofluoresence. […] The IgE antibody also bound to FcεR-expressing human primary monocytes and cells of the monocytic cell line U937, which also express both IgE receptors, FcεRI and FcεRII at low densities (FIG. 3). The IgG1 antibody bound to the surface of A375 melanoma cells and U937 monocytic cells (FIG. 3C). […] Therefore, both chimaeric antibodies of known specificity could be engineered that recognised the expected tumour target and immune effector cells.
Background: Flow cytometry measures light scatter and fluorescence of single cells or particles in a stream.

B1: chimeric anti-HMW-MAA IgE antibody (antibody)
heavy: QVKLQQSGGGLVQPGGSMKLSCVVSGFTFSNYWMNWVRQSPEKGLEWIAEIRLKSNNFGRYYAESVKGRFTISRDDSKSSAYLQMINLRAEDTGIYYCTSYGNYVGHYFDHWGQGTTVTVSSASTQSPSVFPLTRCCKNIPSNATSVTLGCLATGYFPEPVMVTWDTGSLNGTTMTLPATTLTLSGHYATISLLTVSGAWAKQMFTCRVAHTPSSTDWVDNKTFSVCSRDFTPPTVKILQSSCDGGGHFPPTIQLLCLVSGYTPGTINITWLEDGQVMDVDLSTASTTQEGELASTQSELTLSQKHWLSDRTYTCQVTYQGHTFEDSTKKCADSNPRGVSAYLSRPSPFDLFIRKSPTITCLVVDLAPSKGTVNLTWSRASGKPVNHSTRKEEKQRNGTLTVTSTLPVGTRDWIEGETYQCRVTHPHLPRALMRSTTKTSGPRAAPEVYAFATPEWPGSRDKRTLACLIQNFMPEDISVQWLHNEVQLPDARHSTTQPRKTKGSGFFVFSRLEVTRAEWEQKDEFICRAVHEAASPSQTVQRAVSVNPGK
light: DIELTQSPKFMSTSVGDRVSVTCKASQNVDTNVAWYQQKPGQSPEPLLFSASYRYTGVPDRFTGSGSGTDFTLTISNVQSEDLAEYFCQQYNSYPLTFGGGTKLEIKRTVAAPSVFIFPPSDEQLKSGTASVVCLLNNFYPREAKVQWKVDNALQSGNSQESVTEQDSKDSTYSLSSTLTLSKADYEKHKVYACEVTHQGLSSPVTKSFNRGEC
notes: Mouse 225.28s variable regions on human epsilon and kappa constant regions; expressed in HEK cells; also called chimaeric IgE; chimaeric 225.28s IgE
Consider B1, for which the binding result is listed as “binds”.
